B1: SV40 VP1 coat protein (natural protein, simian virus 40 (SV40), UniProt P03087 1-362, looked up)
chain: MAPTKRKGSCPGAAPKKPKEPVQVPKLVIKGGIEVLGVKTGVDSFTEVECFLNPQMGNPDEHQKGLSKSLAAEKQFTDDSPDKEQLPCYSVARIPLPNINEDLTCGNILMWEAVTVKTEVIGVTAMLNLHSGTQKTHENGAGKPIQGSNFHFFAVGGEPLELQGVLANYRTKYPAQTVTPKNATVDSQQMNTDHKAVLDKDNAYPVECWVPDPSKNENTRYFGTYTGGENVPPVLHITNTATTVLLDEQGVGPLCKADSLYVSAVDICGLFTNTSGTQQWKGLPRYFKITLRKRSVKNPYPISFLLSDLINRRTQRVDGQPMIGMSSQVEEVRVYEDTEELPGDPDMIRYIDEFGQTTTRMQ
notes: major capsid protein VP1 of simian virus 40, native protein of the virus (genome from pUCSV40); no residues stated; Stood in the assays as part of viral particles or of VP1 pentamers; the introduction says the capsid is 72 pentamers of VP1; source: SV40 virions purified from SV40-infected or viral genome-transfected CV-1 cells (OptiPrep gradient); input virus in S1 and S2 fractions and whole cell …
B2: SV40 VP2 (natural protein)
chain: MGAALTLLGDLIATVSEAAAATGFSVAEIAAGEAAAAIEVQLASVATVEGLTTSEAIAAIGLIPQAYAVISGAPAAIAGFAALLQTVTGVSAVAQVGYRFFSDWDHKVSTVGLYQQPGMAVDLYRPDDYYDILFPGVQTFVHSVQYLDPRHWGPTLFNAISQAFWRVIQNDIPRLTSQELERRTQRYLRDSLARFLEETTWTVINAPVNWYNSLQDYYSTLSPIRPTMVRQVANREGLQISFGHTYDNIDEADSIQQVTERWEAQSQSPNVQSGEFIEKFEAPGGANQRTAPQWMLPLLLGLYGSVTSALKAYEDGPNKKKRKLSRGSSQKTKGTSASAKARHKRRNRSSRS
notes: minor capsid protein VP2 of simian virus 40, native protein of the virus; contains all of VP3 plus an additional N-terminal extension; Detected with a VP2/VP3 antibody that sees both proteins; source: SV40 virions purified from SV40-infected or viral genome-transfected CV-1 cells (OptiPrep gradient); input virus in S1 and S2 fractions of infected CV-1 cells

Assays:
[1] = target: the molecule itself; test: sucrose gradient sedimentation; S1 of CV-1 cells transfected with the SV40 genome for 48 hrs; continuous 20-40% sucrose gradient, 49,500 rpm, 50 min, 4°C; fractions blotted for VP1
[2] = target: B1; test: co-IP; S2 (Triton X-100 extract of P1, ER-localized virus) from CV-1 cells infected with SV40 for 12 hrs; precipitated with VP1 monoclonal antibodies (CC10 and BC11), Protein G-Dynabeads, wash 50 mM Hepes pH 7.5, 500 mM NaCl, 1% Triton X-100; blot with VP2/VP3 antibody; conditions: partners not purified

**Q.** B1 was tested. Which “stoichiometry N” value [1] did it give?
**A.** The value was 5.

**Q.** Does B2 bind [2]?
**A.** Result: binds

Reference: article PMC3093372, “A Large and Intact Viral Particle Penetrates the Endoplasmic Reticulum Membrane to Reach the Cytosol” (PLoS Pathogens, 2011)
